Measured values: US5576294A, “Human Kunitz-type protease inhibitor variant” (Novo Nordisk A/S, priority 1992, dated 1996)
Where two headings read alike, the source gives them in different places.

Columns and labels:
[1] = molecular target: Porcine trypsin (porcine) (UniProt P00761)
[2] = molecular target: Factor Xa (as used in Example 3) (Homo sapiens (Human)) (UniProt P00742); assay: proteinase inhibition: enzyme incubated 30 min with KFN 1593, residual activity on peptidyl nitroanilide substrate at 405 nm
[3] = molecular target: Porcine trypsin (porcine) (UniProt P00761); assay: as above
[4] = molecular target: T1, glandular kallikrein (porcine pancreatic kallikrein) (Sus scrofa, UniProt P00752); assay: Inhibition of serine proteinases: glandular kallikrein; assay type: biochemical; conditions: Example 8; enzyme 1 U/ml, substrate S2266 0.6 mM, 30 min incubation; read-out: Apparent Ki (nM), Gl. kallikrein
T1 construct: purchased Sigma Chemical Co (St. Louis, Mo., U.S.A.)
T1 sequence (P00752 8-246): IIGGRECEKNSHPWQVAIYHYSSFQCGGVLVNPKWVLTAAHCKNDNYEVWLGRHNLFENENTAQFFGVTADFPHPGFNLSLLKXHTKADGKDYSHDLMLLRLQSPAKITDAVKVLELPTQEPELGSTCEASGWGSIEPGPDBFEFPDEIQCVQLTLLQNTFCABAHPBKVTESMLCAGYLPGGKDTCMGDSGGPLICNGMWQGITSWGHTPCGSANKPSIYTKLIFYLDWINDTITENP
Protocol: (§1) KFN 1593 was purified from yeast culture medium as described in example 1. The concentration of KFN 1593 was determined using 1% E280 nm =8.3 and Mw =6500. Porcine trypsin was from Novo Nordisk (Bagsv.ae butted.rd, Denmark), bovine chymotrypsin (TLCK treated) and porcine pancreatic kallikrein was from Sigma Chemical Co (St. Louis, Mo., U.S.A.), human plasmin and human plasma kallikrein was from Kabi (Stockholm, Sweden).
(§2) Human neutrophil elastase and cathepsin G was purified from extracts of PMNs according to the method described by Baugh and Travis (Biochemistry 15 (1976) 836-843). Peptidyl nitroanilide substrates, S2251, S2586, S2266, S2302 were from Kabi (Stockholm, Sweden). M4765 and S7388 was from Sigma Chemical Co (St. Louis, Mo., U.S.A.) and FXa-1 was from NycoMed (Oslo, Norway).
(§3) Serine proteinases were incubated with various concentrations of KFN 1593 for 30 min. Substrate was then added and residual proteinase activity was measured at 405 nm.
(§4) The three TFPI (domain II) variants were purified from yeast culture medium. Their concentrations were determined from the absorbance at 214 nm using BPTI as a standard. The final concentration was determined by titration with trypsin. Porcine trypsin and human recombinant proteins, factor VIIa, activated protein C (ACP), and tPA were obtained from Novo Nordisk A/S (Bagsvaerd, Denmark), so was human thrombin. Bovine chymotrypsin and glandular kallikrein were obtained from Sigma Chemical Co. (St. Louis, Mo., U.S.A.). Truncated human recombinant tissue factor was obtained from Corvas (San Diego, Calif., U.S.A.). Human neutrophil cathepsin G was purified from extracts of PMNs according to the method described by Baugh and Travis (Biochemistry 15 (1976) 836-843). Human plasmin was from Kabi (Stockholm, Sweden), uPA was from Serono (Milan, Italy), human factor Xa was a gift from Dr. W. Kisiel (Albuquerque, N.M., U.S.A.), and human plasma kallikrein was a gift from Dr. I Schousboe (Copenhagen, Denmark).
(§5) Peptidyl nitroanilide substrates, S2251, S2302, S2266, S2586, S2288, S2444, S2366, and S2238 were from Kabi (Stockholm, Sweden). S7388 and M4765 were from Sigma Chemical Co. (St. Louis, Mo., U.S.A.) and FXa-1 was from Nycomed (Oslo, Norway).
(§6) Serine proteinases were incubated with various concentrations of Kunitz Domain variant for 30 min. Substrate (0.6 mM) was then added and residual proteinase activity was measured at 405 nm.

Bovine chymotrypsin = molecular target: T2, Bovine chymotrypsin (Bos taurus, UniProt P00766); assay: Inhibition of serine proteinases: chymotrypsin; assay type: biochemical; conditions: enzyme 2.5 nM, substrate S2586 0.6 mM, 30 min incubation
T2 construct: purchased Sigma Chemical Co. (St. Louis, Mo., U.S.A.)
Protocol: as §4, §5, §6
(§7) The four variants were purified from yeast culture medium. Their concentrations were determined from the absorbance at 214 nm using BTPI as a standard. Porcine trypsin was obtained from Novo Nordisk A/S (Bagsvaerd, Denmark, bovine chymotrypsin (TLCK treated) was obtained from Sigma Chemical Co. (St. Louis, Mo., U.S.A.). Truncated human recombinant tissue factor was obtained from Corvas (San Diego, Calif., U.S.A.). Human plasmin was from Kabi (Stockholm, Sweden). Human neutrophil cathepsin G and elastase were purified from extracts of PMNs according to the method described by Baugh and Travis (Biochemistry 15 (1976) 836-843).
(§8) Peptidyl nitroanilide substrates, S2251, S2586 were from Kabi (Stockholm, Sweden). S7388 and M4765 were from Sigma Chemical Co. (St. Louis, Mo., U.S.A.).
(§9) Serine proteinases were incubated with various concentrations of the variants for 30 min. Substrate ([…]) was then added and residual proteinase activity was measured at 405 nm.

plasma kallikrein [5] = molecular target: T3, plasma kallikrein (Homo sapiens, UniProt P03952); assay: Inhibition of serine proteinases: plasma kallikrein; assay type: biochemical; conditions: Example 8; enzyme 3 nM, substrate S2302 0.6 mM, 30 min incubation; read-out: Apparent Ki (nM), Pl. kallikrein
Protocol: as §1, §2, §3, §4, §5, §6
Target sequence in this assay (P03952 391-638 limits assumed): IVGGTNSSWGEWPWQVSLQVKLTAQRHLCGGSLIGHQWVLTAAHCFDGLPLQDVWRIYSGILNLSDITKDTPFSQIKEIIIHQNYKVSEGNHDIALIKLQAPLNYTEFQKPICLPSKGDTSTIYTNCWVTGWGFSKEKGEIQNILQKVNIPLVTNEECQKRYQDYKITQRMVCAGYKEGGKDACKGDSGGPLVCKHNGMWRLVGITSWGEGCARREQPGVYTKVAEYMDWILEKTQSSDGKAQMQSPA
Target sequence in this assay (P03952 20-390 limits assumed): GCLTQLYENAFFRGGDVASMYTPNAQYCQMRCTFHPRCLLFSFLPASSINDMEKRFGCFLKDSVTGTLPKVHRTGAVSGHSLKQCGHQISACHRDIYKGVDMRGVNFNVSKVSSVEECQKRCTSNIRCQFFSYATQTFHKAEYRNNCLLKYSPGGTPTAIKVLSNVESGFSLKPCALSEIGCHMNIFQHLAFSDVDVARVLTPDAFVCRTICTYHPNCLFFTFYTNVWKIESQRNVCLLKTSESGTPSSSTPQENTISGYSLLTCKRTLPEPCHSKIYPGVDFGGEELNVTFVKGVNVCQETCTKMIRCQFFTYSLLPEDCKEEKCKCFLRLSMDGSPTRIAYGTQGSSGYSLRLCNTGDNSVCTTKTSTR

Human plasmin [6] = molecular target: T4, Human plasmin (Homo sapiens, UniProt P00747); assay: Inhibition of serine proteinases: plasmin; assay type: biochemical; set-up: human plasmin and human plasma kallikrein was from Kabi (Stockholm, Sweden); purchased Kabi (Stockholm, Sweden); conditions: enzyme 4 nM, 30 min incubation, read-out: Apparent Ki (nM), Plasmin
Protocol: as §1, §2, §3, §4, §5, §6, §7, §8, §9
Target sequence in this assay (P00747 581-810 limits assumed): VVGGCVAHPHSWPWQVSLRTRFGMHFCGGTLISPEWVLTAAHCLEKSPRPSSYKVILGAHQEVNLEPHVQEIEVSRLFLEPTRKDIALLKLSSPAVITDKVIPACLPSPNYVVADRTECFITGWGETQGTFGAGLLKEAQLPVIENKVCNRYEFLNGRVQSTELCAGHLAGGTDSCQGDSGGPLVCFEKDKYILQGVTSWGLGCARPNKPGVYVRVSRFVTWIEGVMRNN
Target sequence in this assay (P00747 97-580 limits assumed): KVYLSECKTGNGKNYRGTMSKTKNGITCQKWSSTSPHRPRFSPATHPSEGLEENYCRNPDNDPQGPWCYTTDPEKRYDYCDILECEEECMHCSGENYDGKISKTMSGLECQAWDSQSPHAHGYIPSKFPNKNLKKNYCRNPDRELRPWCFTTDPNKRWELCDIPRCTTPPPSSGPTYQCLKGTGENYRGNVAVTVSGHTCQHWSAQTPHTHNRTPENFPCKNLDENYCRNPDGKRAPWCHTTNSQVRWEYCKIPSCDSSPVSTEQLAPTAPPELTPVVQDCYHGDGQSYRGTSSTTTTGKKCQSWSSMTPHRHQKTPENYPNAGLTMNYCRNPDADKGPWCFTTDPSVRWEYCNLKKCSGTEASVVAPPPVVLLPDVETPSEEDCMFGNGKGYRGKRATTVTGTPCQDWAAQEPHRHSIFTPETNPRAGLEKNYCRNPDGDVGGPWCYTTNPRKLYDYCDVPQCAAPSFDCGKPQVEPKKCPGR

Porcine trypsin = molecular target: T5, Porcine trypsin (Sus scrofa, UniProt P00761); assay: Inhibition of serine proteinases: trypsin, peptidyl nitroanilide substrate, residual activity at 405 nm; assay type: biochemical; conditions: enzyme 10 nM, read-out: Apparent Ki (nM), Trypsin
T5 construct: purchased Novo Nordisk (Bagsvaerd, Denmark; the applicant itself)
T5 sequence (P00761 9-231): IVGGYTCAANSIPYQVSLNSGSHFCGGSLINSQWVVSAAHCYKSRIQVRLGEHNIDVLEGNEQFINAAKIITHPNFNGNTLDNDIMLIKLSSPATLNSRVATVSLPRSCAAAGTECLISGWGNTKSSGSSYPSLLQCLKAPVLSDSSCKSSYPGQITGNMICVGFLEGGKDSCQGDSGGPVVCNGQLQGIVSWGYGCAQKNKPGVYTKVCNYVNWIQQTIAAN
Protocol: as §1, §2, §3, §4, §5, §6, §7, §8, §9

plasma kallikrein [7] = molecular target: T3, plasma kallikrein; assay: apparent Ki; 3 nM plasma kallikrein, substrate S2302, 30 min preincubation, residual activity at 405 nm
[8] = molecular target: glandular kallikrein (as used in Example 8) (Sus scrofa (Pig)) (UniProt P00752); assay: apparent Ki; 1 U/ml glandular kallikrein, substrate S2266, 30 min preincubation, residual activity at 405 nm
[9] = molecular target: glandular kallikrein (as used in Example 8) (Sus scrofa (Pig)) (UniProt P00752)
[10] = molecular target: Porcine trypsin (porcine) (UniProt P00761); remark: listed apart in the source
[11] = molecular target: bovine chymotrypsin (TLCK treated) (bovine) (UniProt P00766)
Human plasmin [12] = molecular target: T4, Human plasmin
plasma kallikrein [13] = molecular target: T3, plasma kallikrein
[14] = molecular target: Porcine trypsin (porcine) (UniProt P00761); assay: apparent Ki; 10 nM trypsin, substrate S2251, 30 min preincubation, residual activity at 405 nm
[15] = molecular target: bovine chymotrypsin (TLCK treated) (bovine) (UniProt P00766); assay: apparent Ki; 2.5 nM chymotrypsin, substrate S2586, 30 min preincubation, residual activity at 405 nm
Human plasmin [16] = molecular target: T4, Human plasmin; assay: apparent Ki; 4 nM plasmin, substrate S2251, 30 min preincubation, residual activity at 405 nm
[17] = molecular target: T6, Human neutrophil elastase (Homo sapiens, UniProt P08246); assay: Inhibition of serine proteinases: neutrophil elastase; assay type: biochemical; conditions: Example 9
T6 construct: Human neutrophil elastase and cathepsin G was purified from extracts of PMNs; from tissue; host or cells: extracts of human polymorphonuclear leukocytes (PMNs), method of Baugh and Travis
T6 sequence (P08246 30-267): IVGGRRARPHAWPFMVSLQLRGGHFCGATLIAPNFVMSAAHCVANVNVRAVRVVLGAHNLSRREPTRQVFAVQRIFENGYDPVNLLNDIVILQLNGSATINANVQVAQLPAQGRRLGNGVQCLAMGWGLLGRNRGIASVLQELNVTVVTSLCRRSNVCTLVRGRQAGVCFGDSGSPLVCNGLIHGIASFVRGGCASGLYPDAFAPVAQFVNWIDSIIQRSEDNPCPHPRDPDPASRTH
Protocol: as §1, §2
Serine proteinases were incubated with various concentrations of KFN 1593 for 30 min. Substrate was then added and residual proteinase activity was measured at 405 nm. […]
as §7, §8, §9

[18] = molecular target: T7, Human neutrophil cathepsin G (Homo sapiens, UniProt P08311); assay: Inhibition of serine proteinases: neutrophil cathepsin G; assay type: biochemical; conditions: Example 9; enzyme 50 nM, substrate S7388, 30 min incubation; read-out: Apparent Ki (nM), N. cathepsin G
T7 construct: Human neutrophil cathepsin G was purified from extracts of PMNs; from tissue; host or cells: extracts of human polymorphonuclear leukocytes (PMNs), method of Baugh and Travis
T7 sequence (P08311 21-255): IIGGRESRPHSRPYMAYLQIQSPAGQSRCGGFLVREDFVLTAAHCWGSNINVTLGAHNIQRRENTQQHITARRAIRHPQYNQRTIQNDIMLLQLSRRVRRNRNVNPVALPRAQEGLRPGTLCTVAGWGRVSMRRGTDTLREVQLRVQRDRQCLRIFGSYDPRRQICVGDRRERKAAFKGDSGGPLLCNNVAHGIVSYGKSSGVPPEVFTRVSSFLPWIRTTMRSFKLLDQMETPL
Protocol: as §1, §2, §3, §4, §5, §6, §7, §8, §9

[19] = Example 8, read-out: Apparent Ki (nM), chymotrypsin
[20] = Example 8, substrate S2251 0.6 mM
[21] = Example 8, substrate S2251 0.6 mM, 30 min incubation

Row | Substance | Ki [4] | Ki (Bovine chymotrypsin; [19]) | Ki (plasma kallikrein [5]) | Ki (Human plasmin [6]; [20]) | Ki (Porcine trypsin; [21]) | Ki (plasma kallikrein [7]) | Ki [8] | apparent Ki [9] | apparent Ki [10] | apparent Ki [11] | apparent Ki (Human plasmin [12]) | apparent Ki (plasma kallikrein [13]) | Ki [14] | Ki [15] | Ki (Human plasmin [16]) | also measured
1 | TFPI-2, the second Kunitz domain of tissue factor pathway inhibitor, from yeast strain KFN-1593 (from UniProt P10646) |  |  |  |  |  |  |  |  |  |  |  |  |  |  |  | residual proteinase activity at 405 nm [1]: 5 nM; Ki [2]: 150 nM; Ki [3]: 5 nM
2 | [R15K, G16A, Y17R, T19I, L39R, E46K]-TFPI-2 [KFN 1868] | > 100 nM | 20 nM | > 100 nM | 3 nM | < 1 nM |  |  |  |  |  |  |  |  |  |  | 
3 | [R15K, G16A, Y17R, T19I, L39R, E46K]-TFPI-2 from yeast strain KFN-1868 (from UniProt P10646) |  |  |  |  |  | > 100 nM | > 100 nM | > 100 nM | < 1 nM | 20 nM | 3 nM | > 100 nM | < 1 nM | 20 nM | 3 nM | 
4 | [R15K, G16A, Y17R, T19I, L39R]-TFPI-2 [KFN 1867] | > 100 nM | 20 nM | > 100 nM | 3 nM | < 1 nM |  |  |  |  |  |  |  |  |  |  | 
5 | [R15K, G16A, Y17R, T19I, L39R]-TFPI-2 from yeast strain KFN-1867 (from UniProt P10646) |  |  |  |  |  | > 100 nM | > 100 nM | > 100 nM | < 1 nM | 20 nM | 3 nM | > 100 nM | < 1 nM | 20 nM | 3 nM | 
6 | [R15K, G16A, Y17R, T19I]-TFPI-2 [KFN 1811] | > 100 nM | 10 nM | > 100 nM | 3 nM | < 1 nM |  |  |  |  |  |  |  |  |  |  | 
7 | [R15K, G16A, Y17R, T19I]-TFPI-2 from yeast strain KFN-1811 (from UniProt P10646) |  |  |  |  |  | > 100 nM | > 100 nM | > 100 nM | < 1 nM | 10 nM | 3 nM | > 100 nM | < 1 nM | 10 nM | 3 nM | 
8 | [R15L, G16A]-TFPI-2 [KFN 1893] |  |  |  |  |  |  |  |  |  |  |  |  |  |  |  | Ki (Bovine chymotrypsin; Example 9, read-out: Apparent Ki (nM), Chymotrypsin): < 5 nM; neutrophil elastase inhibition (in words) [17]: strong inhibitors; Ki ([17]; enzyme 4 nM, substrate M4765, 30 min incubation, read-out: Apparent Ki (nM), N. elastase): 0.23 nM; Ki [18]: > 1000 nM; Ki (Human plasmin [6]; Example 9): > 1000 nM; Ki (Porcine trypsin; Example 9, substrate S2251, 30 min incubation): > 1000 nM
